We go through 2 molecules from patent US20120322685A1, “DEVICE FOR COLLECTING AND ANALYZING MIGRATORY TUMOR CELLS” (priority 2010, published 2012).

Test [1] has as its system tumor cells and macrophages of primary mammary tumors. In words: in vivo invasion assay, needles with matrigel and growth factors in primary mammary tumor. Also on record: species or system rats and mice. The conditions noted are these: factor in matrigel-filled needle placed in primary tumor. An excerpt: (§1) Therefore, an in vivo invasion assay was created in which three needles (microneedles ˜100 um in diameter) containing matrigel and various growth factors are placed independently with microscopic precision, using a specially designed micromanipulator guided device, into the primary tumor for chemotaxis-based cell collection in vivo [3]. One needle contains control conditions (usually no ligand or an inhibitor), and the other two are identical. […] Fetal serum was also sufficient but this required signaling by the EGF receptor again implicating the EGF receptor. Furthermore, CSF-1 was also sufficient for cell collection. […] Migration and collection was directly correlated with macrophage density in the mammary gland, stage of progression to malignancy (only background levels of cells, <200 cells, were collected from normal mammary glands and adenoma stage tumors compared with carcinoma stage tumors, ˜1000 cells) and the presence of CSF1 in the tumor was required for cell collection as shown using mouse models with either decreased (op/op) or increased (tet on CSF-1) CSF-1 expression that regulates macrophage recruitment to the mammary gland and metastasis. […] Furthermore, the motility of tumor cells and intravasation occurs preferentially in association with macrophages. […]

Test [2] deals with Human lung tumors heterotransplanted into nude mice. In words: in vivo invasion assay, chemotaxis-based cell collection into needles, human lung tumor heterotransplants. The conditions noted are these: needles containing 25 nM EGF; first mouse to mouse transplant.
From the text: as §1

The test system of test [3] is MDA-MB-231 derived mammary tumors. In words: in vivo invasion assay, MDA-MB-231 derived mammary tumors. Also on record: species or system human tumor xenograft in SCID mice tumor xenograft in SCID mice. As to conditions: MDA-MB-231 injected into mammary fat pad of mice; FIG. 1C. An excerpt:
Therefore, an in vivo invasion assay was created in which three needles (microneedles ˜100 um in diameter) containing matrigel and various growth factors are placed independently with microscopic precision, using a specially designed micromanipulator guided device, into the primary tumor for chemotaxis-based cell collection in vivo [3]. One needle contains control conditions (usually no ligand or an inhibitor), and the other two are identical. […] Fetal serum was also sufficient but this required signaling by the EGF receptor again implicating the EGF receptor. Furthermore, CSF-1 was also sufficient for cell collection. […]
Mammary tumors derived by injecting the human cell line MDA-MB-231 into a mammary fat pad of mice were used in the in vivo invasion assay. […] The involvement of EGF and CSF1 in carcinoma cell invasion has been analyzed from primary breast tumors derived from the injection of MDA-MB-231 cells into the mammary fat pads of SCID mice. […]

B1: CSF-1: growth factor chemotactic for macrophages (protein, UniProt P09603 33-554, looked up)
Macrophage colony-stimulating …: EEVSEYCSHMIGSGHLQSLQRLIDSQMETSCQITFEFVDQEQLKDPVCYLKKAFLLVQDIMEDTMRFRDNTPNAIAIVQLQELSLRLKSCFTKDYEEHDKACVRTFYETPLQLLEKVKNVFNETKNLLDKDWNIFSKNCNNSFAECSSQDVVTKPDCNCLYPKAIPSSDPASVSPHQPLAPSMAPVAGLTWEDSEGTEGSSLLPGEQPLHTVDPGSAKQRPPRSTCQSFEPPETPVVKDSTIGGSPQPRPSVGAFNPGMEDILDSAMGTNWVPEEASGEASEIPVPQGTELSPSRPGGGSMQTEPARPSNFLSASSPLPASAKGQQPADVTGTALPRVGPVRPTGQDWNHTPQKTDHPSALLRDPPEPGSPRISSLRPQGLSNPSTLSAQPQLSRSHSSGSVLPLGELEGRRSTRDRRSPAEPEGGPASEGAARPLPRFNSVPLTDTGHERQSEGSFSPQLQESVFHLLVPSVILVLLAVGGLLFYRWRRRSHQEPQRADSPLEQPEGSPLTQDDRQVELPV
Consider B1, for which the “chemotaxis to indwelling needles / cell collection” value in test [1] is “sufficient”.

B2: EGF: epidermal growth factor, chemotactic factor used in collection needles (protein, UniProt P01133 23-1207, looked up)
Pro-epidermal growth factor: PQHWSCPEGTLAGNGNSTCVGPAPFLIFSHGNSIFRIDTEGTNYEQLVVDAGVSVIMDFHYNEKRIYWVDLERQLLQRVFLNGSRQERVCNIEKNVSGMAINWINEEVIWSNQQEGIITVTDMKGNNSHILLSALKYPANVAVDPVERFIFWSSEVAGSLYRADLDGVGVKALLETSEKITAVSLDVLDKRLFWIQYNREGSNSLICSCDYDGGSVHISKHPTQHNLFAMSLFGDRIFYSTWKMKTIWIANKHTGKDMVRINLHSSFVPLGELKVVHPLAQPKAEDDTWEPEQKLCKLRKGNCSSTVCGQDLQSHLCMCAEGYALSRDRKYCEDVNECAFWNHGCTLGCKNTPGSYYCTCPVGFVLLPDGKRCHQLVSCPRNVSECSHDCVLTSEGPLCFCPEGSVLERDGKTCSGCSSPDNGGCSQLCVPLSPVSWECDCFPGYDLQLDEKSCAASGPQPFLLFANSQDIRHMHFDGTDYGTLLSQQMGMVYALDHDPVENKIYFAHTALKWIERANMDGSQRERLIEEGVDVPEGLAVDWIGRRFYWTDRGKSLIGRSDLNGKRSKIITKENISQPRGIAVHPMAKRLFWTDTGINPRIESSSLQGLGRLVIASSDLIWPSGITIDFLTDKLYWCDAKQSVIEMANLDGSKRRRLTQNDVGHPFAVAVFEDYVWFSDWAMPSVMRVNKRTGKDRVRLQGSMLKPSSLVVVHPLAKPGADPCLYQNGGCEHICKKRLGTAWCSCREGFMKASDGKTCLALDGHQLLAGGEVDLKNQVTPLDILSKTRVSEDNITESQHMLVAEIMVSDQDDCAPVGCSMYARCISEGEDATCQCLKGFAGDGKLCSDIDECEMGVPVCPPASSKCINTEGGYVCRCSEGYQGDGIHCLDIDECQLGEHSCGENASCTNTEGGYTCMCAGRLSEPGLICPDSTPPPHLREDDHHYSVRNSDSECPLSHDGYCLHDGVCMYIEALDKYACNCVVGYIGERCQYRDLKWWELRHAGHGQQQKVIVVAVCVVVLVMLLLLSLWGAHYYRTQKLLSKNPKNPYEESSRDVRSRRPADTEDGMSSCPQPWFVVIKEHQDLKNGGQPVAGEDGQAADGSMQPTSWRQEPQLCGMGTEQGCWIPVSSDKGSCPQVMERSFHMPSYGTQTLEGGVEKPHSLLSANPLWQQRALDPPHQMELTQ
modifications: Pro-epidermal growth factor
notes: epidermal growth factor, chemotactic factor used in collection needles
In the case of B2, the “fold more cells collected in needles as compared to needles with buffer alone” value in test [2] worked out at 2.5 fold. The “chemotaxis to indwelling needles / cell collection” value in test [1] is reported as “stimulated collection”. The “fold more cells collected in response to EGF” value in test [3] was 2.5 fold.
